The target of experiment [1] is AP-bound β2AR dimer (construct PN1 with AP-7-168) (UniProt P07550). In words: SEC; AP-bound dimer with nucleotide-free Gs; peak fractions on SDS-PAGE, ratio of β2AR to Gα bands estimated on gels.
For experiment [2], the target named is β2-adrenergic receptor, construct PN1 (monomeric) (UniProt P07550). Put plainly: BLI; FLAG-tagged β2AR held through biotinylated anti-FLAG M1 Fab on SA tips with 10 μM Iso; Gs 30 nM to 10 μM with 10 μM GDP and 0.1% BSA; NH buffer, 0.01% LMNG, 0.001% CHS; 30°C; KD from equilibrium responses. For orientation: BLI is a label-free optical method that tracks binding on a fibre tip over time.

Experiment [3] concerns the target β2-adrenergic receptor, construct PN1 (monomeric β2AR) (human) (UniProt P07550). In words: BLI; as a1, monomeric β2AR with 10 µM AP; 10 µM Iso; apparent kon and koff; KD from equilibrium responses.
Experiment [4] addresses β2-adrenergic receptor, construct PN1 (monomeric) (UniProt P07550). In words: BLI; as a14, with AP at 10 μM.

In article doi:10.1101/2025.10.21.683802 one finds stoichiometry N and Kd data, which are given here for one substance.

For “heterotrimeric Gs (Gαsβ1γ2) (from UniProt P63092 1-394; P62873 1-340; P59768 1-71) (complex)”, the stoichiometry N in experiment [1] is 2 β2AR per Gα. In addition, the Kd in experiment [2] was found to be 960 nM; in experiment [3] it was 1710 nM; in experiment [4], 1700 nM.

For orientation: stoichiometry N means a count of units in the complex or per binding partner.
